Assay results reported in publication PMC9974302, “Bacterial division ring stabilizing ZapA versus destabilizing SlmA modulate FtsZ switching between biomolecular condensates and polymers” (Open Biology, 2023).

B1: ZapA (natural protein, E. coli, UniProt P0ADS2 1-109, looked up)
chain: MSAQPVDIQIFGRSLRVNCPPDQRDALNQAADDLNQRLQDLKERTRVTNTEQLVFIAALNISYELAQEKAKTRDYAASMEQRIRMLQQTIEQALLEQGRITEKTNQNFE
modifications: Alexa Fluor 488 on amino groups, only in the tracer fraction (below 1 mole of dye per mole of protein)
notes: Cell division protein ZapA, E. coli; Dimer-tetramer equilibrium that depends on salt; source: BL21(DE3) strain carrying plasmid pEJR029b, purified
B2: FtsZ (natural protein, E. coli, UniProt P0A9A6 1-383, looked up)
chain: MFEPMELTNDAVIKVIGVGGGGGNAVEHMVRERIEGVEFFAVNTDAQALRKTAVGQTIQIGSGITKGLGAGANPEVGRNAADEDRDALRAALEGADMVFIAAGMGGGTGTGAAPVVAEVAKDLGILTVAVVTKPFNFEGKKRMAFAEQGITELSKHVDSLITIPNDKLLKVLGRGISLLDAFGAANDVLKGAVQGIAELITRPGLMNVDFADVRTVMSEMGYAMMGSGVASGEDRAEEAAEMAISSPLLEDIDLSGARGVLVNITAGFDLRLDEFETVGNTIRAFASDNATVVIGTSLDPDMNDELRVTVVATGIGMDKRPEITLVTNKQVQQPVMDRYQQHGMAPLTQEQKPVAKVVNDNAPQTAKEPDYLDIPAFLRKQAD
modifications: Alexa Fluor 488 or Alexa Fluor 647 on amino groups, only in the tracer fraction (below 1 mole of dye per mole of protein)
notes: Cell division GTPase FtsZ, E. coli; The methods name no species for the construct; Oligomers without GTP (GDP form), polymers with GTP; also called FtsZ-Alexa 647; source: purified as described in [6,22,25]

Columns and labels:
FtsZ = molecular target: B2; assay: fluorescence correlation spectroscopy; FtsZ polymers: 10 uM FtsZ, 2 mM GTP and enzymatic GTP regeneration system; 10 nM labelled tracer; solution buffer; conditions: both partners purified
[1] = molecular target: the molecule itself; assay: fluorescence correlation spectroscopy; no GTP (FtsZ oligomers); solution buffer with 100 mM KCl; 10 nM ZapA-Alexa 488 or SBS-Alexa 488 as tracer; 5 uM ZapA, 5 uM SlmA, 1 uM SBS, 50 or 20 uM FtsZ
[2] = molecular target: the molecule itself; assay: fluorescence polarisation; anisotropy with time after addition of GTP; 5 uM FtsZ with 50 nM FtsZ-Alexa 488 as tracer; solution buffer with 300 mM KCl; 27 C

Question: Does B1 bind (FtsZ)?
Answer: binds

Question: And the “stoichiometry N” value [1]?
Answer: 4

Question: Does B2 bind [2]?
Answer: binds
